The data set concerns the target T1, GST-Mei2 RRM1-RRM2 (Schizosaccharomyces pombe, UniProt P08965 191-373).
T1 sequence: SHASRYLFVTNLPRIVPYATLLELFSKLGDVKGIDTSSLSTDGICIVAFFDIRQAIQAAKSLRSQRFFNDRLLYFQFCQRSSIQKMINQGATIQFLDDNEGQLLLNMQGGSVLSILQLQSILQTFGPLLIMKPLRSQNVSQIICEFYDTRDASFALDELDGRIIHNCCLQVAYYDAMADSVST
Nature of the data set: EMSA.

As for GUCAAUCUUCUGCCGUCUUG (ssRNA) [meiRNA 20mer], the binding result is reported as “no binding”.

The values above are taken from PMC9486875.
